Assays:
[1] = target: T1, human PD-1 extracellular domain protein expressed in Example 1 (tag not stated) (human, UniProt Q15116 25-170); assay: ELISA; 28.5 mg/mL, His buffer pH 5.5, 37°C 0 day (-80°C)
T1 construct: extracellular domain; also called PD-1 protein; not shown: human IgG1 Fc or his tag

[2] = target: T2, human TIM-3 extracellular domain-human IgG1 Fc fusion protein (human, UniProt Q8TDQ0 22-199); assay: as above
T2 construct: Made in house or bought (ACROBiosystems TM3-H5258); also called TIM-3-hFc; not shown: human IgG1 Fc

[3] = target: T1, human PD-1 extracellular domain protein …; assay: ELISA; 15 mg/mL, His buffer pH 5.5, 37°C 0 day (-80°C)
[4] = target: T2, human TIM-3 extracellular domain-human …; assay: as above
[5] = target: T1, human PD-1 extracellular domain protein …; assay: ELISA; PBS, 37°C 14 days (degraded sample)
[6] = target: T2, human TIM-3 extracellular domain-human …; assay: ELISA; PBS, 37°C 14 days (degraded sample)
[7] = target: T2, human TIM-3 extracellular domain-human …; assay: ELISA, EC50 of bispecific over EC50 of the monoclonal control
[8] = target: T1, human PD-1 extracellular domain protein …; assay: ELISA; PBS, 37°C 7 days, against 0 day
[9] = target: T2, human TIM-3 extracellular domain-human …; assay: ELISA; PBS, 37°C 7 days, against 0 day
[10] = target: T1, human PD-1 extracellular domain protein …; assay: ELISA; preparation buffer, 37°C 7 days
[11] = target: T2, human TIM-3 extracellular domain-human …; assay: ELISA; preparation buffer, 37°C 7 days
[12] = target: T3, TIM-3-hFc (Acro biosystems, 22-142) (human, UniProt Q8TDQ0 22-142); assay: double-sandwich ELISA: TIM-3-hFc coated, LB141 titrated, detected with PD-1-his and anti-his-HRP
T3 construct: Bought; not shown: human Fc (hFc)

[13] = target: T1, human PD-1 extracellular domain protein …; assay: ELISA; preparation buffer, 37°C 14 days (degraded sample)
[14] = target: T2, human TIM-3 extracellular domain-human …; assay: as above
[15] = target: T1, human PD-1 extracellular domain protein …; assay: blocking ELISA, PD-1 coated, competitor biotin-labeled PD-L1
[16] = target: T1, human PD-1 extracellular domain protein …; assay: ELISA; PBS, 37°C 14 days, against 0 day
[17] = target: T2, human TIM-3 extracellular domain-human …; assay: ELISA; PBS, 37°C 14 days, against 0 day
[18] = target: T1, human PD-1 extracellular domain protein …; assay: ELISA; 37°C 0 day, against 0 day
[19] = target: T2, human TIM-3 extracellular domain-human …; assay: ELISA; 37°C 0 day, against 0 day
[20] = target: T1, human PD-1 extracellular domain protein …; assay: ELISA; 15 mg/mL, His buffer pH 6.0, 37°C 0 day (-80°C)
[21] = target: T2, human TIM-3 extracellular domain-human …; assay: as above
[22] = target: T1, human PD-1 extracellular domain protein …; assay: ELISA; pH 6.0, 37°C 7 days
[23] = target: T2, human TIM-3 extracellular domain-human …; assay: ELISA; pH 6.0, 37°C 7 days
[24] = target: T1, human PD-1 extracellular domain protein …; assay: ELISA; 40°C 0 day, against 0 day
[25] = target: T2, human TIM-3 extracellular domain-human …; assay: ELISA; 40°C 0 day, against 0 day
[26] = target: T1, human PD-1 extracellular domain protein …; assay: ELISA; pH 6.0, 37°C 7 days, against 0 day
[27] = target: T2, human TIM-3 extracellular domain-human …; assay: ELISA; pH 6.0, 37°C 7 days, against 0 day

B1: bispecific antibody LB141 (bispecific antibody, human IgG4 S228P, kappa)
light: EIVLTQSPATLSLSPGERATLSCRASKGVSTSGYSYLHWYQQKPGQAPRLLIYLASYLESGVPARFSGSGSGTDFTLTISSLEPEDFAVYYCQHSRDLPLTFGGGTKVEIKRTVAAPSVFIFPPSDEQLKSGTASVVCLLNNFYPREAKVQWKVDNALQSGNSQESVTEQDSKDSTYSLSSTLTLSKADYEKHKVYACEVTHQGLSSPVTKSFNRGEC
heavy: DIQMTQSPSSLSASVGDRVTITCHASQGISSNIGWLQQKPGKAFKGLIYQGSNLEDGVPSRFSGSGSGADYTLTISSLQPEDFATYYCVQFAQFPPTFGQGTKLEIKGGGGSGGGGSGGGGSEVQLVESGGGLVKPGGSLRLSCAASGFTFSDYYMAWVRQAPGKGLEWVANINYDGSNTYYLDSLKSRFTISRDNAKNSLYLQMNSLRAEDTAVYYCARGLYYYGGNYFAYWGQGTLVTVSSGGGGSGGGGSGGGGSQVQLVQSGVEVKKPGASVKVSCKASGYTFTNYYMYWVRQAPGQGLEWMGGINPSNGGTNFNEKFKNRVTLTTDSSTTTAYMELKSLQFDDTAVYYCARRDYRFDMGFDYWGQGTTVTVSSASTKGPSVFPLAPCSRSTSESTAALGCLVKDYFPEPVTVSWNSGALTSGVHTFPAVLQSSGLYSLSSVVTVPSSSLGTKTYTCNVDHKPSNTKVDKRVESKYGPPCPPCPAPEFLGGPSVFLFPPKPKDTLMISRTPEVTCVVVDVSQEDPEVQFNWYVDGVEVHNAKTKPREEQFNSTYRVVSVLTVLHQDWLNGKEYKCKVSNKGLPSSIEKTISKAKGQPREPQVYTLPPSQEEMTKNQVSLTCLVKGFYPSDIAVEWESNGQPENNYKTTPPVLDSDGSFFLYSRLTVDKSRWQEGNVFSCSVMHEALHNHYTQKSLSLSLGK
notes: ab6VL-(G4S)3-ab6VH-(G4S)3-PemVH-hIgG4 with PemVL-κ
With B1 the EC50 [1] was 0.181 nM, the EC50 [2] was 0.36 nM and the EC50 [3] was 0.144 nM. It also gave an EC50 [4] of 0.148 nM, an EC50 [5] of 0.4 nM and an EC50 [6] of 0.685 nM. The “Multiple of EC50 variation” value [7] was 0.83 ratio, the “Fold change of EC50” value [8] was 1.16 ratio and the “Fold change of EC50” value [9] was 1.28 ratio. The EC50 [10] was 0.331 nM, the EC50 [11] was 0.325 nM and the EC50 [12] was 0.931 nM. For the same binder, the EC50 [13] was 0.446 nM, the EC50 [14] was 14.5 nM and the IC50 [15] was 1.66 nM. The “Fold change of EC50” value [16] was 1.37 ratio, the “Fold change of EC50” value [17] was 2.71 ratio and the “Fold change of EC50” value [18] was 1 ratio. For the same binder, the “Fold change of EC50” value [19] was 1 ratio, the EC50 [20] was 0.146 nM and the EC50 [21] was 0.164 nM. The EC50 [22] was 0.116 nM, the EC50 [23] was 0.136 nM and the “Fold change of EC50” value [24] was 1 ratio. The “Fold change of EC50” value [25] was 1 ratio, the “Fold change of EC50” value [26] was 0.79 ratio and the “Fold change of EC50” value [27] was 0.83 ratio.

— patent publication US20210269521A1 (L AND L BIOPHARMA, published 2021)
